Assay results: publication PMC10354202 (2023)

How the values were obtained:
Test in all cases: magnetic tweezers
talin VBS [1] = target: T1, talin VBS (UniProt Q9Y490, talin stretched at low force, matured complex)
T1 chain: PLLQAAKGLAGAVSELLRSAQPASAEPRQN

talin VBS [2] = target: T2, talin VBS (UniProt Q9Y490, talin stretched above ~10 pN)
T2 chain: T1 chain

talin VBS [3] = target: T3, talin VBS (UniProt Q9Y490, talin stretched at low force (up to ~9-10 pN))
T3 chain: T1 chain

B1: vinculin (protein)
chain: MPVFHTRTIESILEPVAQQISHLVIMHEEGEVDGKAIPDLTAPVAAVQAAVSNLVRVGKETVQTTEDQILKRDMPPAFIKVENACTKLVQAAQMLQSDPYSVPARDYLIDGSRGILSGTSDLLLTFDEAEVRKIIRVCKGILEYLTVAEVVETMEDLVTYTKNLGPGMTKMAKMIDERQQELTHQEHRVMLVNSMNTVKELLPVLISAMKIFVTTKNSKNQGIEEALKNRNFTVEKMSAEINEIIRVLQLTSWDEDAWASKDTEAMKRALASIDSKLNQAKGWLRDPSASPGDAGEQAIRQILDEAGKVGELCAGKERREILGTCKMLGQMTDQVADLRARGQGSSPVAMQKAQQVSQGLDVLTAKVENAARKLEAMTNSKQSIAKKIDAAQNWLADPNGGPEGEEQIRGALAEARKIAELCDDPKERDDILRSLGEISALTSKLADLRRQGKGDSPEARALAKQVATALQNLQTKTNRAVANSRPAKAAVHLEGKIEQAQRWIDNPTVDDRGVGQAAIRGLVAEGHRLANVMMGPYRQDLLAKCDRVDQLTAQLADLAARGEGESPQARALASQLQDSLKDLKARMQEAMTQEVSDVFSDTTTPIKLLAVAATAPPDAPNREEVFDERAANFENHSGKLGATAEKAAAVGTANKSTVEGIQASVKTARELTPQVVSAARILLRNPGNQAAYEHFETMKNQWIDNVEKMTGLVDEAIDTKSLLDASEEAIKKDLDKCKVAMANIQPQMLVAGATSIARRANRILLVAKREVENSEDPKFREAVKAASDELSKTISPMVMDAKAVAGNISDPGLQKSFLDSGYRILGAVAKVREAFQPQEPDFPPPPPDLEQLRLTDELAPPKPPLPEGEVPPPRPPPPEEKDEEFPEQKAGEVINQPMMMAARQLHDEARKWSSKPGIPAAEVGIGVVAEADAADAAGFPVPPDMEDDYEPELLLMPSNQPVNQPILAAAQSLHREATKWSSKGNDIIAAAKRMALLMAEMSRLVRGGSGTKRALIQCAKDIAKASDEVTRLAKEVAKQCTDKRIRTNLLQVCERIPTISTQLKILSTVKATMLGRTNISDEESEQATEMLVHNAQNLMQSVKETVREAEAASIKIRTDAGFTLRWVRKTPWYQ
- Kd (talin VBS [1]): ~0.004 nM
- Kd (talin VBS [2]): ~5 nM
- Kd (talin VBS [3]): ~0.2 nM
